The record followed here is patent US20070259336A1.

Experiment [1] has as its target serum 12, head and neck cancer patient (Table 1) (human). In words: 5 ug MBP competitor preincubated with serum 12, then IP of Ruc-p53.
The target of experiment [2] is serum 15, head and neck cancer patient (Table 1) (human). In words: 5 ug MBP competitor preincubated with serum 15, then IP of Ruc-p53.
Experiment [3] concerns the target serum 33, colon cancer patient (Table 1) (human). In words: 5 ug MBP competitor preincubated with serum 33, then IP of Ruc-p53.
The target of experiment [4] is serum 34, colon cancer patient (Table 1) (human). In words: 5 ug MBP competitor preincubated with serum 34, then IP of Ruc-p53.
Experiment [5] deals with serum 22, breast cancer patient (Table 1) (human). In words: 5 ug MBP competitor preincubated with serum 22, then IP of Ruc-Smad4.
Experiment [6] has as its target serum 25, breast cancer patient (Table 1) (human). In words: 5 ug MBP competitor preincubated with serum 25, then IP of Ruc-c-Myc.
The target of experiment [7] is serum 27, breast cancer patient (Table 1) (human). In words: 5 ug MBP competitor preincubated with serum 27, then IP of Ruc-K-Ras.
The target in experiment [8] is serum 32, colon cancer patient (Table 1) (human). In words: 5 ug MBP competitor preincubated with serum 32, then IP of Ruc-K-Ras.
Experiment [9] deals with serum 34, colon cancer patient (Table 1) (human). In words: 5 ug MBP competitor preincubated with serum 34, then IP of Ruc-K-Ras.
Experiment [10] deals with serum 35, colon cancer patient (Table 1) (human). In words: 5 ug MBP competitor preincubated with serum 35, then IP of Ruc-K-Ras.
Experiment [11] deals with serum 36, colon cancer patient (Table 1) (human). In words: 5 ug MBP competitor preincubated with serum 36, then IP of Ruc-Smad4.
Experiment [12] has as its target serum 24, breast cancer patient (Table 1) (human). In words: 5 ug MBP competitor preincubated with serum 24, then IP of Ruc-β-catenin-Δ1.

B1: MBP fusion containing the SPEC2 cDNA (protein, UniProt Q9NRR3 1-84, looked up, not shown: large carriers)
chain: MSEFWLCFNCCIAEQPQPKRRRRIDRSMIGEPTNFVHTAHVGSGDLFSGMNSVSSIQNQMQSKGGYGGGMPANVQMQLVDTKAG
For B1, the percent competition in experiment [1] stood at 21%; in experiment [2], 20%; in [3], 7%; in experiment [4] it was 11%; in experiment [5], 4%; in experiment [6], 0%. In addition, the percent competition in [7] is 5%; in [8], 25%; in experiment [9], 4%; in experiment [10], 16%; in experiment [11], 0%; in experiment [12], 23%.
